Where a chain is given by its changes, count along the chain named. In names and notes the source's numbering stands.

Here are results for 4 molecules from patent US20260049134A1 (UNIVERSITY OF FLORIDA RESEARCH FOUNDATION, published 2026).

The chains are these.
B1: TH9-0022 (antibody, human IgG1, kappa, L234A L235A, V domains shown)
VH: QSLEESGGRLVTPGTPLTLTCTVSGFSLSSYAMNWVRQAPGKGLEWIGIINSYGSTYYASWAKGRFTISKTSTTVDLKITSPTTEDTATYFCARVTYDSYGYGYAPYGMDLWGPGTLVTVSS
VL: LVMTQTPSSTSNAVGGTVTIKCQASQSIGNVLAWYQQKPGQPPKLLIYAASTLASGVPSRVGGSRSGTEYTLTISGVQREDAATYYCLGSDSDSDIAFGGGTELEILR
notes: also called TH9-022; negative control IgG1
B2: HW-97 chimeric rabbit-human IgG1 LA/LA/PG (antibody, V domains shown)
VH: QKQLVESGGRLVTPGTPLTLTCTVTGIDLSSHGMSWVRQAPGKGLEWIGVIYPSGSTWYASWARGRFTISKTSTTVDLKMTSLTTEDTATHFCARGDVGGADNNIWGPGTLVTVSS
VL: SFVLTQPASVQVDLGQTVSLTCTAETLSRSYASWYQQKPGQAPVLLIYRDTSRPSGVPDRFSGSSSGNTATLTISGAQAGDEADYYCATSDGSGSSYQYVFGGGTQLTVTG
notes: Fc-silenced (L234A/L235A/P329G) IgG1, lambda; Alexa Fluor 647-labeled in single-step flow cytometry; Prototype of cluster C-97
B3: HW-101 chimeric rabbit-human IgG1 LA/LA/PG (antibody, V domains shown)
VH: QEQLVESGGRLVTPGTPLTLTCKASGFSLGKYDMSWVRQAPGKGLEWIGTIYAGSGSTWYASWAKGRFTISKTSTTVDLKMTSLTTEDTATYFCARDFLGVNSIWGPGTLVTISS
VL: B2 VL with D13N, E25D, G40D, Y48H, S65N, S96N, Y97F, Q98H, Y99F
notes: Fc-silenced (L234A/L235A/P329G) IgG1, lambda; Alexa Fluor 647-labeled in single-step flow cytometry; Cluster C-97
B4: HW-113 chimeric rabbit-human IgG1 LA/LA/PG (antibody, V domains shown)
VH: QKQLVESGGGLVQPGGSLTLTCTVSGFSLNKYYMGWFRQAPGKGLEWIGVISRSGDTYYSSWAKGRFTISKASTTVDLRITSPTTEDTATYFCARDASSPGFHGDRLDLWGQGTLVTVSS
VL: B2 VL with D13N, E25D, S93I, S96N, Q98L, Y99W
notes: Fc-silenced (L234A/L235A/P329G) IgG1, lambda; Alexa Fluor 647-labeled in single-step flow cytometry

One assay addresses T1, SELL.
T1 construct: also called SELL-Fc-His (R&D Systems); L-Selectin
T1 chain: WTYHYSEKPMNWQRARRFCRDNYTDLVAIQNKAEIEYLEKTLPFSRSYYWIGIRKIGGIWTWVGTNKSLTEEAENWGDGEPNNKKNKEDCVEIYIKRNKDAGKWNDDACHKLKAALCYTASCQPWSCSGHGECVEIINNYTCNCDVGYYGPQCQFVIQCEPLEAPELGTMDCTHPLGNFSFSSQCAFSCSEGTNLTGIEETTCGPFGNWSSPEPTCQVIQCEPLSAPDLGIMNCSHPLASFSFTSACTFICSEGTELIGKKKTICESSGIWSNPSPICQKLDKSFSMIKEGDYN
Kind of assay: ELISA on coated protein. In general terms: ELISA stands for enzyme-linked immunosorbent assay.
With B1, the binding result was “no binding (tested: 150 ng IgG1 per well)”.
The same measure, in the same setting: the same measure for B2: “no binding (tested: 150 ng IgG1 per well)”; for B3: “no binding (tested: 150 ng IgG1 per well)”.
B4: the binding result is “no binding (tested: 150 ng IgG1 per well)”.

The target in a further assay is T2, IGSF11.
T2 construct: also called IGSF11-Fc (R&D Systems)
T2 chain: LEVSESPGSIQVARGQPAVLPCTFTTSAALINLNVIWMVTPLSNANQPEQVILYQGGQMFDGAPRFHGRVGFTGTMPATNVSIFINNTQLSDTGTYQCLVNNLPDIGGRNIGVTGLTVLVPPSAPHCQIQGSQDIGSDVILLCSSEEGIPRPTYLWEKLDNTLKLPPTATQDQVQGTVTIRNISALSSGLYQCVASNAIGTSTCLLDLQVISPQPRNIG
Kind of assay: ELISA on coated protein.
For the molecule B1, the binding result was “no binding (tested: 150 ng IgG1 per well)”.
Consider B2, for which the binding result is “no binding (tested: 150 ng IgG1 per well)”.
Regarding B3, the binding result is on record as “no binding (tested: 150 ng IgG1 per well)”.
Still for that read-out and setting: the same measure for B4: “no binding (tested: 150 ng IgG1 per well)”.

The next assay addresses T3, SLAMF7.
T3 construct: also called SLAMF7-StrepTag; not shown: StrepTag and any linker
T3 chain: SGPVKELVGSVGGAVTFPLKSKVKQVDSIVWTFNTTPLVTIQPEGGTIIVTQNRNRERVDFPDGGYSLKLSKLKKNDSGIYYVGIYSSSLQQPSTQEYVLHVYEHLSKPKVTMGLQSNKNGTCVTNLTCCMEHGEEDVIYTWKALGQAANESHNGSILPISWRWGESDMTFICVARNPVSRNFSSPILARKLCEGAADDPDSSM
Kind of assay: ELISA on coated protein.
Turning to B1, the binding result is on record as “no binding (tested: 150 ng IgG1 per well)”.
The same measure, in the same setting: the same measure for B2: “no binding (tested: 150 ng IgG1 per well)”; for B3: “no binding (tested: 150 ng IgG1 per well)”; for B4: “no binding (tested: 150 ng IgG1 per well)”.

The next assay addresses T4, ANXA1.
T4 construct: also called ANXA1-His (R&D Systems); not shown: His tag
T4 chain: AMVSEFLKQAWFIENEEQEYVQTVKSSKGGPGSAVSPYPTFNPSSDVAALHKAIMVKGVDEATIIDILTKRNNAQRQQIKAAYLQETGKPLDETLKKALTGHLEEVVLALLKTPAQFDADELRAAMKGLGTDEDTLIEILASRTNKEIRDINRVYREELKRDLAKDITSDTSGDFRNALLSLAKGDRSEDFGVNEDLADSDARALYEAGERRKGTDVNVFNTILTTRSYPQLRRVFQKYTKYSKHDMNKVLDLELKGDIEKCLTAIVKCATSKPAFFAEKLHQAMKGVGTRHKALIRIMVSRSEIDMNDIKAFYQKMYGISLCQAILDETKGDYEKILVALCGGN
Kind of assay: ELISA on coated protein.
With B1, the binding result is “no binding (tested: 150 ng IgG1 per well)”.
The same measure, in the same setting: for B2 the value was “no binding (tested: 150 ng IgG1 per well)”; for B3, “no binding (tested: 150 ng IgG1 per well)”; for B4, “no binding (tested: 150 ng IgG1 per well)”.

Another assay has as its target T5, HHLA2.
T5 construct: also called HHLA2-Fc (R&D Systems); B7-H7; not shown: Fc part and any linker
T5 chain: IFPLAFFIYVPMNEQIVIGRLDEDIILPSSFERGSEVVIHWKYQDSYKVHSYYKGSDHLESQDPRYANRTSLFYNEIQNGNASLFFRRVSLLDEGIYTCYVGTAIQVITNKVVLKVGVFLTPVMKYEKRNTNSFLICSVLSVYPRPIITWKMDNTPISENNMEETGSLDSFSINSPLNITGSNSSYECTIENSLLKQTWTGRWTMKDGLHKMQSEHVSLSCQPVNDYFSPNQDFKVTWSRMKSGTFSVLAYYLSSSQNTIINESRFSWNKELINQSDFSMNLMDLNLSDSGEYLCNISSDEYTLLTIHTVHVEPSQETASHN
Kind of assay: ELISA on coated protein.
As for B1, the binding result is recorded as “no binding (tested: 150 ng IgG1 per well)”.
For B2, the binding result is reported as “no binding (tested: 150 ng IgG1 per well)”.
With B3, the binding result is “no binding (tested: 150 ng IgG1 per well)”.
In the case of B4, the binding result is listed as “no binding (tested: 150 ng IgG1 per well)”.

The target in another assay is T6, GARS-His (Sino Biological) (human, UniProt P41250 37-739, limits assumed).
T6 construct: Bought; also called GARS1; glycyl-tRNA synthetase; not shown: His tag of the bought protein
T6 sequence: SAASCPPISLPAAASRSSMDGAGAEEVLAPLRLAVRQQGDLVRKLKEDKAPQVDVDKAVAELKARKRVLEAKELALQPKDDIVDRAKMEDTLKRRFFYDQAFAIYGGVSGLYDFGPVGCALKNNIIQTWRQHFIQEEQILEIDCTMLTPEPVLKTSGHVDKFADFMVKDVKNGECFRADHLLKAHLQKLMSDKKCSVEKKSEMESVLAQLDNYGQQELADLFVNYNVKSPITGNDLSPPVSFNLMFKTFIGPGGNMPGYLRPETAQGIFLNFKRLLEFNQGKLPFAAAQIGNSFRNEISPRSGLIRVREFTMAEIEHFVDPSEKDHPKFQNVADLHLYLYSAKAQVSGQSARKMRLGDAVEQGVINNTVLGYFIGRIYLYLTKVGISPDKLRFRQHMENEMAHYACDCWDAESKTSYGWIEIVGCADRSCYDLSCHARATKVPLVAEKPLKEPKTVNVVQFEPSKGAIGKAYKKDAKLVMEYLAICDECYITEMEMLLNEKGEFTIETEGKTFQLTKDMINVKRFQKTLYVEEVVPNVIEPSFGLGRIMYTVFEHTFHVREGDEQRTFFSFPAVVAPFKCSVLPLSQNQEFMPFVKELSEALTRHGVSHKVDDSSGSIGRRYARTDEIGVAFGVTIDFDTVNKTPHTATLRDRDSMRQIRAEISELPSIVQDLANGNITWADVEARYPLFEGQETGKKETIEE
Description: ELISA on coated protein.
As for B1, the binding result is listed as “no binding (tested: 150 ng IgG1 per well)”.
Turning to B2, the binding result is reported as “no binding (tested: 150 ng IgG1 per well)”.
For the molecule B3, the binding result is “no binding (tested: 150 ng IgG1 per well)”.
Still for that read-out and setting: the same measure for B4: “no binding (tested: 150 ng IgG1 per well)”.
